Laboratory results as given in the nanobody polyreactivity screen of Harvey et al. (2022).

Experiment: yeast display, Sf9 membrane polyspecificity reagent, FACS + sequencing; frameworks hold sequencing errors
Method in brief: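 Galactose-induced (36–48 hours) yeast carrying a synthetic nanobody display library were exposed to 10% biotinylated, detergent-solubilized Sf9 membrane reagent at 4 °C for 1 hour. FACS followed streptavidin microbead enrichment, using low and high (top ~1%) gates for expression (anti-HA) and reagent binding (streptavidin). Colony PCR, MiSeq 2 × 250 sequencing and CDR-length filtering followed. Labels for polyreactivity reflect the gate of origin.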

Row | Sequence | polyreactivity (PSR sort gate)
1 | QVQLVESGGGLVQAGGSLRLSCAASGYTFSQNAMGWYRQAPGKEREVVAGITTRGTTTYYADSVKGRFTISRDNAKNTVYLQMNSLKPEDTPVYYCAADNSYTDNYWGQGTQVTVSS | low polyreactivity
2 | QVQLVESGGGLVQAGGSLRLSCAASGYTFSYYAMGWYRQAPGKERELVAAITSTGSTYYADSVKGRFTISRDNAKNTDYFQMNSLKPEDTEVYYCNVDVATVGPVDYWGQGTQVTVSS | low polyreactivity
3 | QVQLVESGGGLVQAGGSLRLSCAASGYTFTGNAMGWYRQAPGKERELVARITSVGRTYYADSVKGRFTISRDNAKNTVYLQMNSLKPEDTAVYYCAAQPYRYRYWPRVGGYDYWGQGTQVTVTS | high polyreactivity
4 | QVQLVESGGGLVQAGGSLRLSCAASGYTFTINAMGWYRQAPGKERELVAAISWNGGRTYYADAVKGRFTISRDNAKNTVYLQMNSLKPEDTAVCYCNADTYAAGDYWGQGTQVTVSS | high polyreactivity
5 | QVQLVESGGGLVQAGGSLRLSCAASGYTFTTYAMGWYRQAPGKEREFVASIRWRGGNTYYADSVKGRFTISRDNAKNTVYLQMNSQKREDTAVYYCARRVDYISSKYGYWGQGTQVTVSS | high polyreactivity
6 | QVQLVESGGGLVQAGGSLRLSCAASGYTFVDNAMGWYRQAPGKERELVAAINWDGASTYADSVKGRFTISRDNAKNTVYLQMNSLKPEDTAVYYCTASGKDIFNYVYQGYDYWGQGTQVTVSS | low polyreactivity
7 | QVQLVESGGGLVQAGGSLRLSCAASGYTFVIYAMGSYRQAPGKERELVAAITTIGGRTYYADSVKGRFTISRDNAKNTVYLQMNSLKPEDTAVYYCAADIRSNRLYDGGYWGLGTQVTVSS | low polyreactivity
8 | QVQLVESGGGLVQAGGSLRLSCAASGYTFVIYAMGWYRQAPGKERELVAAITTIGGRTYYADSVKGRFTISRDNAKNTVYLQMNSLKPEDTAVYYCAADIRSNRLYDGGYWGQGTQVTVSS | low polyreactivity
9 | QVQLVESGGGLVQAGGSLRLSCAASGYTFWDYTMGWYRQAPGKEREFVAAINWSGGSTYYADSVKGRFTISRDNAKNTVYLQMNSLKPEDTAVYYCAARRGGRRGYDYWGQGTQVTVSS | high polyreactivity
10 | QVQLVESGGGLVQAGGSLRLSCAASGYTFWWYAMGWSRQAPGKERELVAAISIGGSTKYADSVKGRFTISRDNAKNTVYLQMNSLKPEDTAVYYCAAEVSYHYVPYGYWGQGTQVTVSS | low polyreactivity
11 | QVQLVESGGGLVQAGGSLRLSCAASGYTFYFYAMGWSRQAPGKEREFVAAIRSSGGRTYYADSVKGRFTISRDNAKNNVYLQMNSLKPEDTAVYYCAAAGYYYSVDGAGPRYDYWGQGTQVTVSS | low polyreactivity
12 | QVQLVESGGGLVQAGGSLRLSCAASGYTFYINTMGWYRQAPGKEREFVAAITWSGGSTYYADSVKGRFTISRDNAKNTVYLQMNSLIPEDTAVYYCAADLYVGDMDYWGQGTQVTVSS | low polyreactivity
13 | QVQLVESGGGLVQAGGSLRLSCAASGYTFYLYAMGWYRQAPGKERELVAAISTNGGRTYYADSVKGRFTISRDNAKNTVYLQLNSLKPEDTAVYYCAVRSRGTAPQYYYWGQGTQVTVSS | high polyreactivity
14 | QVQLVESGGGLVQAGGSLRLSCAASGYTFYRYAMGWYRQAPGKERELVASITRSGGSTYYADSVKGRFTISRDNAKNTVYLQMNSLKPEDTAVYYCAAEYEFGHSSTPMDYWGQGTQVTVSS | high polyreactivity
15 | QVQLVESGGGLVQAGGSLRLSCAASGYTFYSNAMGWYRQAPGKERELVAVISRGGGTYYADSVKGRFTISRDNAKNTVYLQMNSLKPEDTAVYYCAASTFTYHWRYDYWGQGTEVTVSS | low polyreactivity
16 | QVQLVESGGGLVQAGGSLRLSCAASGYTFYVYAMGWYRQAPGKERELVAAIRSGGTTYYADSVKGRFTISRDNAKYTVYLQMNSLKPEDTAVYYCAADVQDRYHRAWYDYWGQGTQVTVSS | low polyreactivity
17 | QVQLVESGGGLVQAGGSLRLSCAASGYTFYYYAMGWYRQAPGKERELVAAISWSGGSTYYADSVKGRVTISRDNAKNTVYLQMNSLKPEDTAVYYCAAGVDLYYDLYDYEYWGQGTQVTVSS | low polyreactivity
18 | QVQLVESGGGLVQAGGSLRLSCAASGYTFYYYAMGWYRQAPGKERELVAGISGRGGSTYYADSVKGRFTISRDNAKNTVYLQMNSLKPEDTAVYYCAATSPRAGTRRYEYWGQGTQVTVSS | high polyreactivity
19 | QVQLVESGGGLVQAGGSLRLSCAASGYTIGIYAMGWYRQAPGKERELVAAISFSDGTTYYADSVKGRFTISRDNAKNTVYLQMNSLKPEDTAVYYCAAAAGGTVVGEGDYWGQGTQVTVSS | low polyreactivity
20 | QVQLVESGGGLVQAGGSLRLSCAASGYTILIYAKGWYRQAPGKERELVASISRSGGSTYYADSVKGRFTISRDNAKNTVYLQMNSLKTEDTAVYYCNADFGYDSVVEYDYWGQGTQVTVSS | low polyreactivity
21 | QVQLVESGGGLVQAGGSLRLSCAASGYTILTNAMGWYRQAPGKERELVADITSSGGSTYYADSVKGRFTISRDNAKNTVYLQMNSLKPEDTAVYYCAKRWYRNRYGYWGQGTQVTVSS | high polyreactivity
22 | QVQLVESGGGLVQAGGSLRLSCAASGYTIYQYAMGWYRQAPRKERELVAAISSDASTSYADSVKGRFTISRDNAKNTVYLQMNSLKPEDTAVYYCAADPGPYYDWGYDYWGQGTQVTVSS | low polyreactivity

Row | Sequence | polyreactivity (PSR sort gate)
23 | QVQLVESGGGLVQAGGSLRLSCAASGYTIYYYAMGWYRQAPGKERELVAVITSRGTRTYYADSVQGRFTISRDNAKNTVYLQMNSLKPEDTAVYYCNKARGVAYDWGQGTQVTVSS | high polyreactivity
24 | QVQLVESGGGLVQAGGSLRLSCAASGYTLGDYAMGWYRQAPGKERELVAAISSGGITSYADSVKGRFTISRDNAKNTVYLQMNSLKPEDTAVYYCNAAIVGFTRAYQYDYWGQGTQVTVSS | high polyreactivity
25 | QVQLVESGGGLVQAGGSLRLSCAASGYTLGDYSMGWYRQAPGKERELVAVITRNGGRTYYSDSVKGRFTISRDKAKNTVYLQMNSLKPEDTAVYYCNRDTSIRHYNYWGQGTQVTVSS | high polyreactivity
26 | QVQLVESGGGLVQAGGSLRLSCAASGYTLGYYAMGWYRQAPGKERELVASITERGGSTYYADSVKGRFTISRDNAKNTVYLQMNSLKPEDTAVYYCAADWDPSWWLFPTSSYDYWGQGTQVTVSS | low polyreactivity
27 | QVQLVESGGGLVQAGGSLRLSCAASGYTLRIYAMGWYRQAPGKEREMVAAISRSGGRTFYADSVKGRFTISRDNAKNTVYLQMNSLKPEDTAVYYCAADPRSYDTGRMDYWGQGTQVTVSS | high polyreactivity
28 | QVQLVESGGGLVQAGGSLRLSCAASGYTLYQYAMGWYRPAPVKERELVAAISRRGGSTYYADSVKGRFTISRDNAKNTVYLLMNSLKPEDTAVYYCNNANLYRFWEMDYWGQGTQVSVSS | high polyreactivity
29 | QVQLVESGGGLVQAGGSLRLSCAASRFIFRRNAMGWYRQAPGKERELVAAITLSGGSTYYADSVKGRFTISRDNAKNTVYLQMKSLKPEDTAFYFCAARPGYYTRYDYWGQGTQVTVSS | low polyreactivity
30 | QVQLVESGGGLVQAGGSLRLSCAASRFIFSVYTMGSYIQAPGKERELVAAISSGPSTTYADSVKGRFTISRDNAKNTVYLQMNSLKPEDTAVYYCARRDGTTQALFGYDYWGLGTQVTVSS | low polyreactivity
31 | QVQLVESGGGLVQAGGSLRLSCAASRFTIIPYDMGRYRQAPGKERELVATISRGGSTNYADSVKGRFTISRENAKNTVYLQMNSLKPEDTAVYYCAAEYKVVFSQPYCEYDYWGQGTQVTVSS | low polyreactivity
32 | QVQLVESGGGLVQAGGSLRLSCAASRLTFSYYAMGWYRQAPGKERELVAAISERGGSTYYADSVKGRFTISRDNAKNTVYLQMNSLKPEDTAVYYCAADFVYGTRDDSWGQGTQVTVSS | high polyreactivity
33 | QVQLVESGGGLVQAGGSLRLSCAASRNIFDTYVMGWYRQAPGKETELVAANTSDGGTYYADSVKGRFTISRDNAKNTVFFQMNSLKPVDTAVYSCAADTYYYPIHDYWGQGTQVTVSS | low polyreactivity
34 | QVQLVESGGGLVQAGGSLRLSCAASRRIFSQYAMGWSRQAPGKERELVAAITWRGASTYYADSVKGRFTISRDNAKNTVYLQMNSLKPEDTAVYYCAAGYPPGRYYRVRWVGYWGQGTQVTVSS | high polyreactivity
35 | QVQLVESGGGLVQAGGSLRLSCAASRRTFKPYAMGWYRQAPGKERELVARISGSGGSTYYADSVKGRFTISRDNAKNTVYLQMNSLKPEDTAVYYCATTPYYWFDYWGQGTQVTVSS | low polyreactivity
36 | QVQLVESGGGLVQAGGSLRLSCAASRRTYWYNAMGWYRQSPGKERELVAAISRAGRTYYADSVKGRFTISRDNAKNTVYIQMNSLKPEDTAVYYCNVVLFGDSGNLQYYYWGQGTQVTVSS | high polyreactivity
37 | QVQLVESGGGLVQAGGSLRLSCAASRSIFSWYAMGWYRTAPGTERELVAAITWTGGSTYYADSVKGRFTISRDNAKNTVYLQMKSLKTEDTAVYYCAARRVVYRKYGDRGRWYNYWGQGTQVTVSS | high polyreactivity
38 | QVQLVESGGGLVQAGGSLRLSCAASRSIFSYNAMGWYRQAPGKGREFVAAITSSGTRKYYADSVQGRFTISRDNAMNTVYLQLNSLKPEDTAVYYCAADLRYDYWGQGTQVPVSS | high polyreactivity
39 | QVQLVESGGGLVQAGGSLRLSCAASRSIFYINAMGWYRQEPGKEMELVAAITSDGSTYYADSVKGRFTISRDNAKNTVYLQMNSLKPEDTAVYYCAADLTSDQYLYYWYWFYSWGQGTQVTVSS | low polyreactivity
40 | QVQLVESGGGLVQAGGSLRLSCAASRSNFQFYAMGWYRQAPGTERELVAVISTRGGSTYYADSVKGRFTISRDKAKNTVYLQMYSLKPEDTAVYYCAAKSVYRMGYWGQGTQVTVSS | high polyreactivity
41 | QVQLVESGGGLVQAGGSLRLSCAASRSTFPFYAMGWYRQAPGKERELVAAITSGGSTYADSVKGRFTISRDNAKNTVYLQMNSLKPEDTAVYYCAASWPRWWRFGYWGQGTQVTVSS | low polyreactivity
42 | QVQLVESGGGLVQAGGSLRLSCAASRSTFTGNAMGWYRQAPGNERELVASINGSSGSTYYADSVKGRFTISRDNAKNTVYLQMNSLKPEDTAVYYCAKDSFLHFPRVGWVGLEYWGQGTQVTVSS | low polyreactivity
43 | QVQLVESGGGLVQAGGSLRLSCAASVFIFDRYAMGWYRQAPGKERELVAAISSGGSTYYADSVKGRFTISRDNAKNTVYLQMNSLKPEDTAVYYCAAESWLNFIYEYDYWGQGTQVTVSS | low polyreactivity
